Our source for the Kd values is paper PMC7423246, “A Peptide–Lectin Fusion Strategy for Developing a Glycan Probe for Use in Various Assay Formats” (Chemosensors (Basel, Switzerland), 2019).

In general, Kd refers to a measure of binding affinity in units of concentration. Read a low Kd as tighter binding.

In this assay the target is HIV coat protein gp120 (oligomannose bearing) (HIV (Human Immunodeficiency Virus), UniProt P04578 33-511, high-mannose-type N-glycans (oligomannose), sites not stated). The assay can be described thus: MST; NT-647 labeled PFA held constant, serial dilution of gp120, in 0.1% PBST; 'effective' binding affinity. The note with it: both partners purified.

B1: NT-647 labeled PFA (natural protein)
chain: MSKYAVANQWGGSSAPWHPGGTWVLGARDNQNVVAIEIKSGDGGKSFTGTMTYAGEGPIGFKAQRTGQNQYNVENQWGGNDAPWHPGGKWVIGGRDNQNVIALSVTSSDGGKNLSGTNTYANEGPIGFRGQIEVSHPQAPF
modifications: NT-647 fluorophore on amines (amine-reactive NT-647-NHS labelling kit)
Regarding B1, the Kd is 4.1 ± 1.4 nM.
